The values that follow come from publication PMC2552378.

Holding throughout (assay): purified protein
Substrate in data set [1]: Nc1ncnc2c1ncn2[C@@H]1O[C@H](COP(=O)(O)OP(=O)(O)OP(=O)(O)O)[C@@H](O)[C@H]1O
The following applies: 6 mM MgCl2, 150 mM KCl, 50 mM Mops pH 7.8.

Substrate in data set [2]: NCCO
It is filed as biochemical, Trypanosoma brucei. Conditions: 5 mM ATP, 6 mM MgCl2, 150 mM KCl, 50 mM Mops pH 7.8.

Substrate in data set [3]: C[N+](C)(C)CCO
It is filed as biochemical, Trypanosoma brucei. Conditions: 5 mM ATP, 6 mM MgCl2, 150 mM KCl, 50 mM Mops pH 7.8.

B1: TbEK1 (formerly TbC/EK1) (Trypanosoma brucei brucei TREU927) (protein)
chain: MEVAVGHVRHVPCTVPDDPASRMRAIREIVARHCALFMQKGGDVGRSQCASNLGNNITSGTSNGFDADRLQVVAFSGGITNEMYHVYCEGWEAHSVVMRIFGKETERVISRGDELFYQSLFIPTYVRGQNFLVYQYLYQYEPLPFVEMVKEYEKIARGIAFFHVRATLEARSDYSVTPVGGVVGAGGATVGPTNTCSRFDLEENYIVHSLTEWVEQALSETVQEKVDATKRATYASVAQQLKEEAQWLLPLMQRHSPELGESTCHNDLLSGNIMRQKSDGALKIIDFEYAKRNYFLFDIANHFNEYTGLECDYATYFPSEEHMKKFVTTYMCAMREELEKHAEEAKRRQLTDIIPGQQHFFMCDVGGVEGDKRIHRMVQLVKLLTLASHLSWSVWALLQEAVSKTDMDFLRYSQLRLSRYLETRKEFSASS
As for B1, in data set [1] (2 mM ethanolamine), the Km stood at 219.2 ± 29 µM, the kcat was found to be 6.56 s⁻¹ and the kcat/Km is 29900 M⁻¹ s⁻¹. Moreover, in data set [2], the Km was determined as 18.4 ± 0.9 µM, the kcat worked out at 6.56 s⁻¹ and the kcat/Km turned out to be 357000 M⁻¹ s⁻¹.

B2: TbC/EK2 (Trypanosoma brucei brucei TREU927) (protein)
chain: MALRPFPLGNTPLHAVIRRSAREFECVEAVPASNAVRSPSTASWVSAESLDSIISLANRTSEEMEVDQLIYRLCRSLYHVAKKKSAQIHCHPNHQERQQQQQQASSSGWRSVECEGHFSNMRGREDWCPLLHLFDPRSYYKVMGQPSQHDGCKLCGDVVGTESSPEGVSQWLMSELSVTRLTGGNSNHVYRLGHASFPKKAVLLRVYGDGGGGDVIDRARDIKVMRLMSKSEMGPGLLHTFHWGRVEEFMDGVLTCTTEKLLTSPSLLADVYGGLSKMHQLDYTPLLPENMRTKGMSNGHNSSQSVSDTVSKSGGGQEGPDGTVGGVNELESTCHTSFERVCLRLLRLVSLNVVEEHRHSLESWLAGEVMFVRRELQYRGIPVVLSHNDLNPGNILLSDGAGEASGTVFSDEELRVENTPLSKRYVTRKGKNMNLVERRGFLFIDFEYADANYRCFDLGNTLCELDYDYTRGTEAGGRGFIKYLFVFPPPAMEEAWRGLGEEYPRMPELIYDAWRRGVCDGSSDIGSVALLAVRRYFAERDNVPLETVELSEAQVGEVLLGMLASHLYWTIWSMTMGSAPDNCVECEDCDDQMFAVGGSGLDYMRYGECRLREYIALRGWLAEKGLLS
On to B2, for which the Km was 20.6 ± 1.96 µM in data set [1] (2 mM choline), 31.4 ± 2.6 µM in data set [3] and 2560 ± 310 µM in data set [2]. For the same protein, the kcat in data set [1] (2 mM choline), in data set [3] and in data set [2] was 12.91 s⁻¹ in each case. Also, the figures for the kcat/Km in data set [1] (2 mM choline), in data set [3] and in data set [2] were 627000 M⁻¹ s⁻¹, 411000 M⁻¹ s⁻¹ and 5040 M⁻¹ s⁻¹, respectively.
